In general, EC50 (read off the curve) refers to the concentration at which the effect is half-maximal. A low value points to an effect from little substance.

The values that follow come from patent US10450368 (DUKE UNIVERSITY, dated 2019).

Test [1] concerns the target T1, Histones.
T1 construct: Mixture of proteins
As to the kind of experiment: AtheNA, Ab 50 ug/ml.

The next test concerns the target T2, Centromere B (UniProt P07199 1-599).
T2 construct: also called Cent B
T2 sequence: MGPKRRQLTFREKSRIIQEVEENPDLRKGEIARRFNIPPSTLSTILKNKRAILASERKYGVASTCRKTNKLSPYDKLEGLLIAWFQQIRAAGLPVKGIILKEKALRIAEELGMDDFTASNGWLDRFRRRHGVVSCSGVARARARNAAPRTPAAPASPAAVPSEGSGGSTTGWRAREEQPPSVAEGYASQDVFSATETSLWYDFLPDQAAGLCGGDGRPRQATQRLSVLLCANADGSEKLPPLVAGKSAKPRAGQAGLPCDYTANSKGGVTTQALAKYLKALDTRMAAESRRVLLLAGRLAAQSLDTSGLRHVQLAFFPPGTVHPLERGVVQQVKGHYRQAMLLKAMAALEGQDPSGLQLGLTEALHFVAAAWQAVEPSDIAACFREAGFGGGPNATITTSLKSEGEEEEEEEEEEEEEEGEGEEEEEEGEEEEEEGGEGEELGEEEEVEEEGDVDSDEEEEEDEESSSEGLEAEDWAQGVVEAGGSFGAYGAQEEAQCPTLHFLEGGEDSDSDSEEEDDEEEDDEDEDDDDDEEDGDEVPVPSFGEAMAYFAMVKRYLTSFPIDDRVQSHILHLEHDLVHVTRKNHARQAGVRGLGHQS
Kind of test: AtheNA, Ab 50 ug/ml.

Test [2] has as its target T3, SSB (UniProt P05455 1-408).
T3 sequence: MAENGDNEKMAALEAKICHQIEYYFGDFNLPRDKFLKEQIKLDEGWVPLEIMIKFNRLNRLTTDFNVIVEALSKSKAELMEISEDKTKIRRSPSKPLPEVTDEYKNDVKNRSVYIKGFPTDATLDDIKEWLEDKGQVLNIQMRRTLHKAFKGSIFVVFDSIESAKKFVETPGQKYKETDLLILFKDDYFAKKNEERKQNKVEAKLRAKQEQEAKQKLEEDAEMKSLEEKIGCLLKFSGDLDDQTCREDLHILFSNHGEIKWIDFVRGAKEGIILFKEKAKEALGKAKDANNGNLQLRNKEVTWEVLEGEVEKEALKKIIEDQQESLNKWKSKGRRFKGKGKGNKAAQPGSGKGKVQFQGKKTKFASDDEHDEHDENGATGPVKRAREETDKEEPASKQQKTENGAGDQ
As to the kind of experiment: AtheNA, Ab 50 ug/ml.

Test [3] deals with T4, Scl-70 (UniProt P11387 1-765).
T4 sequence: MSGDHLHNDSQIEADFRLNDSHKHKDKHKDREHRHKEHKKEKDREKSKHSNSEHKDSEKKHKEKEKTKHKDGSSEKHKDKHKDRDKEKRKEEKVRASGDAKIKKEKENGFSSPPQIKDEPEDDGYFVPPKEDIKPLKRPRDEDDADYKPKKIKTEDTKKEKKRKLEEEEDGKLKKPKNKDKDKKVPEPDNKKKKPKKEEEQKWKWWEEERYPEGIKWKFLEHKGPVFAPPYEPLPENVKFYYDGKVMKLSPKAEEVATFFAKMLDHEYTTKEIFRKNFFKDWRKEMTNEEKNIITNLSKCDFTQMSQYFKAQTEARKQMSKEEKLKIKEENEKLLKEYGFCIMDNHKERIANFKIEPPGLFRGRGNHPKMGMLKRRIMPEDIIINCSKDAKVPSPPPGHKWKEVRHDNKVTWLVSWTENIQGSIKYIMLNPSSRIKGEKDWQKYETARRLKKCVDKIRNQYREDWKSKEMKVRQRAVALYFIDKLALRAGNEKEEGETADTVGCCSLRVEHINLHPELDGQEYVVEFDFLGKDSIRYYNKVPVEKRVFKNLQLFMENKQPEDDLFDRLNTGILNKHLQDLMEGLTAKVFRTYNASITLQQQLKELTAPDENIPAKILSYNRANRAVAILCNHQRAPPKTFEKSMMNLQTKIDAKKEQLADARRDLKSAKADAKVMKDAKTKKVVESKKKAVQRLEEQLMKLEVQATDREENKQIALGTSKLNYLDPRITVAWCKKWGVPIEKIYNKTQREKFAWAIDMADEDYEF
Kind of test: AtheNA, Ab 50 ug/ml.

The next test has as its target T5, STUB-1 (human, UniProt Q9UNE7 1-303).
T5 sequence: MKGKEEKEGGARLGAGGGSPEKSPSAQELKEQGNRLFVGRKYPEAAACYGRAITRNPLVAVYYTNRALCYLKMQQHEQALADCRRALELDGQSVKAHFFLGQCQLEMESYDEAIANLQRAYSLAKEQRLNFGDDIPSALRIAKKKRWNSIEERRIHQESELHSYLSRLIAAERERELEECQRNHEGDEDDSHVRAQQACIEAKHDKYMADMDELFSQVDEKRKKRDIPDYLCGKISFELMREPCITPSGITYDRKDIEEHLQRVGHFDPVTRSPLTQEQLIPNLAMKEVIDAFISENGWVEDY
As to the kind of experiment: ProtoArray human protein microarray.

Test [4] addresses T6, SSA.
T6 construct: also called SSA (Ro)
Kind of test: AtheNA, Ab 25 ug/ml.
Source text: (§1) AtheNA Multi-Lyte ANA Plus Test System is one such assay. This is luminex-based assay, which is also used to screen patient sera.

Test [5] concerns the target T1, Histones. As to the kind of experiment: AtheNA, Ab 25 ug/ml.
Source text: as §1
In test [6] the target is T7, Sm (Smith antigen).
T7 construct: Protein complex
As to the kind of experiment: AtheNA, Ab 25 ug/ml.
Source text: as §1

The target in test [7] is T8, RNP (ribonucleoprotein).
T8 construct: Protein-RNA complex
As to the kind of experiment: AtheNA, Ab 25 ug/ml.
Source text: as §1

Test [8] addresses T3, SSB. Kind of test: AtheNA, Ab 25 ug/ml.
Source text: as §1
The target in test [9] is T4, Scl-70. Kind of test: AtheNA, Ab 25 ug/ml.
Source text: as §1
For another test, the target named is T9, CH505.TF mutant gp120 M8 (HIV-1).
T9 construct: domain: gp120
Kind of test: direct-binding ELISA (OD450), panel 'CH505.TF gp120 M8'.

Test [10] deals with T6, SSA. As to the kind of experiment: AtheNA, Ab 12.5 ug/ml.
Source text: as §1
Test [11] addresses T1, Histones. Kind of test: AtheNA, Ab 12.5 ug/ml.
Source text: as §1
Test [12] addresses T7, Sm (Smith antigen). As to the kind of experiment: AtheNA, Ab 12.5 ug/ml.
Source text: as §1
Test [13] deals with T8, RNP (ribonucleoprotein). Kind of test: AtheNA, Ab 12.5 ug/ml.
Source text: as §1
In test [14] the target is T3, SSB. Kind of test: AtheNA, Ab 12.5 ug/ml.
Source text: as §1
Test [15] addresses T4, Scl-70. As to the kind of experiment: AtheNA, Ab 12.5 ug/ml.
Source text: as §1

B1: CH557 (antibody, V domains shown)
VH: QVRLAQYGGGVKRLGATMTLSCVASGYTFNDYYIHWVRQAPGQGFELLGYIDPANGRPDYAGALRERLSFYRDKSMETLYMDLRSLRYDDTAMYYCVRNVGTAGSLLHYDHWGSGSPVIVSS
VL: EIVLTQSPATLSASPGERVTLTCRASRSVRNNVAWYQHKGGQSPRLLIYDASTRAAGVPARFSGSASGTEFTLAISNLESEDFTVYFCLQYNNWWTFGQGTRVDIK
notes: also called CH235.12; CH557_4A/293i
On to B1, for which the AtheNA signal with Histones [1] is 16 relative luminescence units; in the test with Centromere B, 46 relative luminescence units; with SSB [2] it was 15 relative luminescence units; in the test with Scl-70 [3], 6 relative luminescence units. The binding result with STUB-1 is “no binding”.

B2: CH493 (antibody, V domains shown)
VH: QVRLLQYGGGVKRPGASMTISCVASGYNFNDYYIHWVRQAPGQGLELMGWIDPSGGRTDYAGAFGDRVSMYRDKSMNTLYMDLRSLRSGDTAMYYCVRNVGTAGSLLHYDHWGLGVMVTVSS
VL: EIVLTQSPATLSVSPGERVTLSCRASQSVRNNLAWYRQKRGQAPRLLIYGASTRATGIPARFSGSGSGTEFTLTISSMQSEDFAVYYCQQYNNWWTFGQGTKVEIK
notes: also called CH235.9; DH493
As to B2, the AtheNA signal in the test with SSA [4] turned out to be 100; with Histones [5], 202; in the test with Sm (Smith antigen) [6], 53; with RNP (ribonucleoprotein) [7], 55; in the test with SSB [8], 38; with Scl-70 [9] it was 34. The AtheNA signal in the test with SSA [10] was determined as 54; in the test with Histones [11], 200; in the test with Sm (Smith antigen) [12], 42; with RNP (ribonucleoprotein) [13], 49; with SSB [14], 22; with Scl-70 [15], 26. Further, in the test with CH505.TF mutant gp120 M8, the “EC50 (read off the curve)” value is roughly 2 µg/mL.
